Patent US20240010696A1

Molecular target: mouse IL-12 receptor on cells (mouse) (UniProt Q60837)
Assay: cell-based or functional assay

mouse IL-12 receptor on cells (mouse), sequence (Q60837 20-738, chain 1 of 2): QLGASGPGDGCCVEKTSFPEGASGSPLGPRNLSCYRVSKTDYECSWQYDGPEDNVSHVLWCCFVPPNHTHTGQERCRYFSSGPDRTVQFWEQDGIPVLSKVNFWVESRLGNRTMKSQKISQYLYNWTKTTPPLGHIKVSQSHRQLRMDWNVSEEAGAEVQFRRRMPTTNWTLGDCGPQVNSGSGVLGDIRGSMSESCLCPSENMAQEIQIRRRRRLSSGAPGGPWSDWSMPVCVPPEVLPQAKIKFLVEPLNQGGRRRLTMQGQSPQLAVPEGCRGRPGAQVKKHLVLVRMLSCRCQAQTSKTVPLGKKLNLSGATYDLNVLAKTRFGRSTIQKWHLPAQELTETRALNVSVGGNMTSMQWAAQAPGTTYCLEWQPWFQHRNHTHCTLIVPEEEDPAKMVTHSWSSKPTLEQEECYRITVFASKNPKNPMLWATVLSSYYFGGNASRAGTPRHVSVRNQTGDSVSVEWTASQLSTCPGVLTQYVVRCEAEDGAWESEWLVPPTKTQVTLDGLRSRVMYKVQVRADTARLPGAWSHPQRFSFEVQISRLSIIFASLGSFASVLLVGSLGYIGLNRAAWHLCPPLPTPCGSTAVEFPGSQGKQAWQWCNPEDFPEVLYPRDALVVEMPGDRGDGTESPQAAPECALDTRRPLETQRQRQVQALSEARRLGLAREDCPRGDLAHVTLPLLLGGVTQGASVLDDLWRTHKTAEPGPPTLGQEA
mouse IL-12 receptor on cells (mouse), sequence (P97378 24-874, chain 2 of 2, further chain): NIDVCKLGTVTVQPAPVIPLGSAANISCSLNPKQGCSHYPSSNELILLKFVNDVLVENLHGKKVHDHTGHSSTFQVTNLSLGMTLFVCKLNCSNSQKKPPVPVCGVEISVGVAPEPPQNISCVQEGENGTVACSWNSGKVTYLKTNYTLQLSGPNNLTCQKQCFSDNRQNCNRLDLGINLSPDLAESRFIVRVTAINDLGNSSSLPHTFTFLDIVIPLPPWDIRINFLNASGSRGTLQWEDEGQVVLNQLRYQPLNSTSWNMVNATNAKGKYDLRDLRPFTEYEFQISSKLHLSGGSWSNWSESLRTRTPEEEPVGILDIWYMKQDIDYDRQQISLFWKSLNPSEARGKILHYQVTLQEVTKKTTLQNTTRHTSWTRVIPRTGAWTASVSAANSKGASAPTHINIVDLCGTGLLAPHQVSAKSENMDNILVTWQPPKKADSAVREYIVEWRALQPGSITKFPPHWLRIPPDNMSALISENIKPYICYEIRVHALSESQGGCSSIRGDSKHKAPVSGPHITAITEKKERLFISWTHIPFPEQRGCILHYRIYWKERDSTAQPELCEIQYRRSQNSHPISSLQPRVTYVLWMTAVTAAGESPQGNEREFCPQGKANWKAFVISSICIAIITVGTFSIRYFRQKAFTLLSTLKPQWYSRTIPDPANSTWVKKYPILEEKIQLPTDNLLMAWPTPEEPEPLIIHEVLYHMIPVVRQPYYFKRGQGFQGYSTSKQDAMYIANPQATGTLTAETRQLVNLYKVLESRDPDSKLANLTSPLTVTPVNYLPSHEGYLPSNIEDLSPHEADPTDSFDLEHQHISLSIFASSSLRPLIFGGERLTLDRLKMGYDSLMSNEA

B1: mIL12 mutein-isotype (mouse IL-12 mutein fused to a human isotype (IgG1) control antibody) (protein, part only; not given: isotype control antibody, part only)
chain: MWELEKDVYVVEVDWTPDAPGETVNLTCDTPEEDDITWTSDQRHGVIGSGKTLTITVKEFLDAGQYTCHKGGETLSHSHLLLHKKENGIWSTEILKNFKNKTFLKCEAPNYSGRFTCSWLVQRNMDLKFNIKSSSSSPDSRAVTCGMASLSAEKVTLDQRDYEKYSVSCQEDVTCPTAEETLPIELALEARQQNKYENYSTSFFIRDIIKPDPPKNLQMKPLKNSQVEVSWEYPDSWSTPHSYFSLKFFVGGGEKMKETEEGCNQKGAFLVEKTSTEVQCKGGNVCVQAQDRYYNSSCSKWACVPCRVRSGGGGGGSRVIPVSGPARCLSQSRNLLKTTDDMVKTAREKLEFYPCTAEDIDHEDITRDQTSTLKTCLPLELHKNESCLATRETSSTTRGSCLPPQKTSLMMTLCLGSIYEDLKMYQTEFQAINAALQNHNHQQIILDKGMLVAIDELMQSLNHNGETLRQKPPVGEADPYRVKMKLCILLHAFSTRVVTINRVMGYLSSA
B1 showed a Reduction in pSTAT4 production of 2) mutein IL-12 fused to isotype mAb as compared to 1) wild-type IL12 fused to isotype mAb (activated mouse CD4 T cells, flow cytometry) of 23200 fold.
